From the supplement of paper PMC9112550, “Optimization of the antimicrobial peptide Bac7 by deep mutational scanning” (BMC Biology, 2022)

System: Escherichia coli TOP10
Assay: shrunken log2 fold change of peptide-encoding DNA abundance (4.5 h post-induction vs induction); higher = less antimicrobial activity (less host growth inhibition)
Settings: time post-induction: 4.5 h; library: site-saturation at positions 5, 18, 19, 20
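Also: peptides expressed intracellularly from a pBAD plasmid library in pooled LB shake-flask culture, induced with 0.3% L-arabinose, DNA abundance read by NGS, three biological replicates, DESeq2 with apeglm shrinkage.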

Sequence	shrunken log2 fold change
RRIRSRPPRLPRPRPRPLYSPRP	-0.442
RRIRLRPPRLPRPRPRPEHWPRP	0.4
RRIRKRPPRLPRPRPRPYSPPRP	-0.23
RRIRMRPPRLPRPRPRPIQWPRP	0.144
RRIRIRPPRLPRPRPRPMVPPRP	0.0231
RRIRGRPPRLPRPRPRPVNPPRP	0.127
RRIRTRPPRLPRPRPRPHDDPRP	-0.0991
RRIRMRPPRLPRPRPRPFHLPRP	-0.0432
RRIRTRPPRLPRPRPRPESWPRP	0.809
RRIRQRPPRLPRPRPRPRNAPRP	0.483
RRIRRRPPRLPRPRPRPAEQPRP	0.275
RRIRDRPPRLPRPRPRPCPNPRP	-0.02
RRIRMRPPRLPRPRPRPMPHPRP	0.161
RRIRNRPPRLPRPRPRPRTPPRP	0.261
RRIRKRPPRLPRPRPRPWAWPRP	-0.00174
RRIRRRPPRLPRPRPRPYIRPRP	-0.715
RRIRNRPPRLPRPRPRPVHDPRP	0.068
RRIRIRPPRLPRPRPRPHCHPRP	-0.394
RRIRKRPPRLPRPRPRPSHPPRP	0.146
RRIRWRPPRLPRPRPRPIWSPRP	0.629
RRIRPRPPRLPRPRPRPWHAPRP	-0.0857
RRIRSRPPRLPRPRPRPGFSPRP	-0.0153
RRIRDRPPRLPRPRPRPYSAPRP	-0.0545
RRIRERPPRLPRPRPRPPNVPRP	0.149
RRIRGRPPRLPRPRPRPGLWPRP	1.03

Sequence	shrunken log2 fold change
RRIRARPPRLPRPRPRPDMCPRP	-0.335
RRIRKRPPRLPRPRPRPLVHPRP	0.0415
RRIRKRPPRLPRPRPRPDIRPRP	0.0731
RRIRCRPPRLPRPRPRPRAVPRP	0.405
RRIRPRPPRLPRPRPRPTYCPRP	0.00402
RRIRRRPPRLPRPRPRPDPFPRP	0.1
RRIRCRPPRLPRPRPRPSRKPRP	-0.227
RRIRCRPPRLPRPRPRPFTNPRP	-0.685
RRIRIRPPRLPRPRPRPFLEPRP	-1.1
RRIRTRPPRLPRPRPRPPFVPRP	0.227
RRIRKRPPRLPRPRPRPHCVPRP	-0.0287
RRIRGRPPRLPRPRPRPTMPPRP	0.425
RRIRKRPPRLPRPRPRPRFRPRP	0.276
RRIRIRPPRLPRPRPRPWCMPRP	-0.693
RRIRLRPPRLPRPRPRPSMSPRP	0.221
RRIRARPPRLPRPRPRPFATPRP	0.66
RRIRMRPPRLPRPRPRPSLAPRP	0.566
RRIRSRPPRLPRPRPRPMEEPRP	-0.01
RRIRKRPPRLPRPRPRPKCEPRP	0.848
RRIRWRPPRLPRPRPRPNGSPRP	0.0647
RRIRNRPPRLPRPRPRPNCRPRP	-0.0373
RRIRDRPPRLPRPRPRPYFSPRP	-0.345
RRIRQRPPRLPRPRPRPTKNPRP	0.0334
RRIRMRPPRLPRPRPRPCWTPRP	-0.218
RRIRNRPPRLPRPRPRPQRDPRP	0.0103

Sequence	shrunken log2 fold change
RRIRWRPPRLPRPRPRPGFPPRP	-0.0683
RRIRTRPPRLPRPRPRPSSTPRP	-0.604
RRIRLRPPRLPRPRPRPLLSPRP	-0.327
RRIRQRPPRLPRPRPRPTMGPRP	-0.0283
RRIRNRPPRLPRPRPRPGKVPRP	-0.123
RRIRGRPPRLPRPRPRPDDDPRP	0.0442
RRIRYRPPRLPRPRPRPSFWPRP	-0.122
RRIRFRPPRLPRPRPRPVFQPRP	0.071
RRIRGRPPRLPRPRPRPDSDPRP	0.0289
RRIRTRPPRLPRPRPRPQDQPRP	0.0516
RRIRGRPPRLPRPRPRPRSSPRP	0.128
RRIRLRPPRLPRPRPRPMPLPRP	-0.043
RRIRVRPPRLPRPRPRPDSYPRP	0.0384
RRIRYRPPRLPRPRPRPMDYPRP	-0.218
RRIRPRPPRLPRPRPRPMVQPRP	0.0526
RRIRMRPPRLPRPRPRPNARPRP	0.323
RRIRYRPPRLPRPRPRPYATPRP	-0.175
RRIRKRPPRLPRPRPRPTQDPRP	1.3
RRIRDRPPRLPRPRPRPNTLPRP	-0.269
RRIRGRPPRLPRPRPRPGFDPRP	0.97
RRIRIRPPRLPRPRPRPMDHPRP	-0.0898
RRIRDRPPRLPRPRPRPNLTPRP	-0.325
RRIRQRPPRLPRPRPRPLPGPRP	0.0661
RRIRIRPPRLPRPRPRPIIGPRP	-0.13
RRIRNRPPRLPRPRPRPWPDPRP	0.646

Sequence	shrunken log2 fold change
RRIRFRPPRLPRPRPRPVVLPRP	0.0119
RRIRWRPPRLPRPRPRPDRIPRP	0.082
RRIRYRPPRLPRPRPRPTDNPRP	-1.05
RRIRLRPPRLPRPRPRPLHQPRP	-0.297
RRIRHRPPRLPRPRPRPLPDPRP	-0.299
RRIRLRPPRLPRPRPRPHFRPRP	-0.102
RRIRPRPPRLPRPRPRPKEPPRP	0.133
RRIRGRPPRLPRPRPRPIWNPRP	0.37
RRIRYRPPRLPRPRPRPMHHPRP	-0.596
RRIRRRPPRLPRPRPRPTTWPRP	0.28
RRIRFRPPRLPRPRPRPDESPRP	-0.0167
RRIRQRPPRLPRPRPRPYSAPRP	-0.00273
RRIRERPPRLPRPRPRPWRHPRP	-0.0998
RRIRTRPPRLPRPRPRPREFPRP	0.33
RRIRFRPPRLPRPRPRPIFYPRP	-0.0962
RRIRCRPPRLPRPRPRPFRCPRP	-0.0165
RRIRVRPPRLPRPRPRPDHNPRP	-0.488
RRIRSRPPRLPRPRPRPLWHPRP	-0.289
RRIRCRPPRLPRPRPRPYADPRP	-0.037
RRIRYRPPRLPRPRPRPQYEPRP	-0.565
RRIRERPPRLPRPRPRPLGQPRP	0.0127
RRIRWRPPRLPRPRPRPDHLPRP	0.08
RRIRERPPRLPRPRPRPFLLPRP	-0.688
RRIRTRPPRLPRPRPRPSCIPRP	-0.44
RRIRDRPPRLPRPRPRPVEVPRP	0.43

Sequence	shrunken log2 fold change
RRIRTRPPRLPRPRPRPTIYPRP	-0.409
RRIRIRPPRLPRPRPRPPESPRP	0.185
RRIRWRPPRLPRPRPRPSSHPRP	-0.248
RRIRHRPPRLPRPRPRPYWAPRP	-0.186
RRIRHRPPRLPRPRPRPEWIPRP	-0.0632
RRIRSRPPRLPRPRPRPQGCPRP	-0.0814
RRIRCRPPRLPRPRPRPASPPRP	0.117
RRIRSRPPRLPRPRPRPLFDPRP	-0.335
RRIRVRPPRLPRPRPRPLYYPRP	-0.453
RRIRSRPPRLPRPRPRPNGVPRP	-0.00885
RRIRARPPRLPRPRPRPTACPRP	0.405
RRIRVRPPRLPRPRPRPYFVPRP	0.263
RRIRLRPPRLPRPRPRPWLHPRP	-0.0284
RRIRGRPPRLPRPRPRPFPDPRP	0.0778
RRIRQRPPRLPRPRPRPIVSPRP	-0.0135
RRIRMRPPRLPRPRPRPVQHPRP	0.415
RRIRERPPRLPRPRPRPFGSPRP	0.0942
RRIRLRPPRLPRPRPRPRCVPRP	0.0662
RRIRNRPPRLPRPRPRPHDGPRP	-0.378
RRIRFRPPRLPRPRPRPSEQPRP	-0.217
RRIRFRPPRLPRPRPRPSLAPRP	0.119
RRIRERPPRLPRPRPRPHHVPRP	0.00979
RRIRQRPPRLPRPRPRPFKIPRP	-0.00995
RRIRPRPPRLPRPRPRPCIMPRP	-1.1
RRIRLRPPRLPRPRPRPDMRPRP	-0.0825

Sequence	shrunken log2 fold change
RRIRARPPRLPRPRPRPQWIPRP	-0.0374
RRIRCRPPRLPRPRPRPQSRPRP	-0.016
RRIRARPPRLPRPRPRPLSQPRP	0.263
RRIRKRPPRLPRPRPRPDTKPRP	-0.0643
RRIRFRPPRLPRPRPRPDSRPRP	0.391
RRIRYRPPRLPRPRPRPHMCPRP	-0.0704
RRIRWRPPRLPRPRPRPMYCPRP	0.0174
RRIRDRPPRLPRPRPRPVWMPRP	0.0445
RRIRHRPPRLPRPRPRPKKGPRP	-0.0679
RRIRFRPPRLPRPRPRPAFFPRP	0.0784
RRIRFRPPRLPRPRPRPWWKPRP	0.0472
RRIRLRPPRLPRPRPRPVHMPRP	-0.0691
RRIRFRPPRLPRPRPRPYWHPRP	-0.754
RRIRCRPPRLPRPRPRPCFNPRP	0.713
RRIRFRPPRLPRPRPRPYNTPRP	-1.1
RRIRLRPPRLPRPRPRPQQNPRP	-0.241
RRIRHRPPRLPRPRPRPPQSPRP	0.193
RRIRSRPPRLPRPRPRPNEIPRP	-0.12
RRIRCRPPRLPRPRPRPFPCPRP	-0.367
RRIRARPPRLPRPRPRPQCIPRP	-0.125
RRIRARPPRLPRPRPRPAWIPRP	0.116
RRIRDRPPRLPRPRPRPASRPRP	0.17
RRIRSRPPRLPRPRPRPNFDPRP	0.221
RRIRYRPPRLPRPRPRPPRCPRP	-0.0545
RRIRERPPRLPRPRPRPQGWPRP	0.114
